Measured values taken from patent US20080279864A1 (Johns Hopkins, published 2008).
Ends that are not written are not given here.

B2: NTB(1-55)-pGBKT7 (other)
chain: MKLLSSIEQACDICRLKKLKCSKEKPKCAKCLKNNWECRYSPKTKRSPLTRAHLTEVESRLERLEQLFLLIFPREDLDMILKMDSLQDIKALLTGLFVQDNVNKDAVTDRLASVETDMPLTLRQHRISATSSSEESSNKGQRQLTVSMVRFGDELGGRYGGPGGGERARGGGAGGAGGPGPGGLQPGQRVLYKQSIAQRART
notes: Yeast two-hybrid fusion; GAL4 domain placed first by the vector's design
B6: NTB(1-95)-pGBKT7 (NH3 terminus of α1B fused to the GAL4 binding domain) (other)
chain: MKLLSSIEQACDICRLKKLKCSKEKPKCAKCLKNNWECRYSPKTKRSPLTRAHLTEVESRLERLEQLFLLIFPREDLDMILKMDSLQDIKALLTGLFVQDNVNKDAVTDRLASVETDMPLTLRQHRISATSSSEESSNKGQRQLTVSMVRFGDELGGRYGGPGGGERARGGGAGGAGGPGPGGLQPGQRVLYKQSIAQRARTMALYNPIPVKQNCFTVNRSLFVFSEDNVVRKYAKRITEWP
notes: Yeast two-hybrid fusion; GAL4 domain placed first by the vector's design; also called NTB (pGBKT7); full-length NTB
B12: lam-pGBKT7 (lamin C attached to the GAL4 binding domain) (other, UniProt P04386 1-147, looked up)
chain: MKLLSSIEQACDICRLKKLKCSKEKPKCAKCLKNNWECRYSPKTKRSPLTRAHLTEVESRLERLEQLFLLIFPREDLDMILKMDSLQDIKALLTGLFVQDNVNKDAVTDRLASVETDMPLTLRQHRISATSSSEESSNKGQRQLTVSSEEVVSREVSGIKAAYEAELGDARKTLDSVAKERARLQLELSKVREEFKELKARNTKKEGDLIAAQARLKDLEALLNSKEAALSTALSEKRTLEGELHDLRGQVAKLEAALGEAKKQLQDEMLRRVDAENRLQTMKEELDFQKNIYSEELRETKRRHETRLVEID

Key:
[1] = biological target: T1, CTC(1525-1670)pGBKT7 (proximal third of the α1C COOH terminus fused to the GAL4 binding domain) (rabbit, UniProt P04386 1-147; P15381 1525-1670); assay: yeast two-hybrid auto-activation control (empty pGADT7), % of colonies surviving on high stringency plates, mean ± SEM
T1 construct: Yeast two-hybrid fusion; GAL4 domain placed first by the vector's design; also called CTC (pGBKT7)

[2] = biological target: T2, CTA(1763-1928)pGBKT7 (proximal COOH terminus of the P/Q-type α1A subunit fused to the GAL4 binding domain) (UniProt P04386 1-147); assay: as above
T2 construct: Yeast two-hybrid fusion; GAL4 domain placed first by the vector's design

[3] = biological target: B6; assay: as above
NTB(1-55)-pGBKT7 [4] = biological target: B2; assay: as above
[5] = biological target: T3, NTC(1-153)-pGBKT7 (NH3 terminus of α1C fused to the GAL4 binding domain) (rabbit, UniProt P04386 1-147; P15381 1-153); assay: as above
T3 construct: Yeast two-hybrid fusion; GAL4 domain placed first by the vector's design; also called NTC (pGBKT7)

[6] = biological target: T4, NTA(2-100)pGBKT7 (NH3 terminus of the P/Q-type α1A subunit fused to the GAL4 binding domain) (UniProt P04386 1-147); assay: as above
T4 construct: Yeast two-hybrid fusion; GAL4 domain placed first by the vector's design

NTB(45-95)-pGBKT7 [7] = biological target: T5, NTB(45-95)-pGBKT7 (human, UniProt P04386 1-147 (Saccharomyces cerevisiae entry)); assay: as above
T5 construct: Yeast two-hybrid fusion; GAL4 domain placed first by the vector's design

NTB(Δ45-55)-pGBKT7 [8] = biological target: T6, NTB(Δ45-55)-pGBKT7 (human, UniProt Q00975 1-95); assay: as above
T6 construct: Yeast two-hybrid fusion; GAL4 domain placed first by the vector's design; also called NTB peptide lacking residues 45-55

[9] = biological target: T1, CTC(1525-1670)pGBKT7 (proximal third of …); assay: yeast two-hybrid auto-activation control (empty pGADT7), filter lift β-galactosidase assay, % of colonies turning blue, mean ± SEM
[10] = biological target: T2, CTA(1763-1928)pGBKT7 (proximal COOH …); assay: as above
[11] = biological target: B6; assay: as above
NTB(1-55)-pGBKT7 [12] = biological target: B2; assay: as above
[13] = biological target: T3, NTC(1-153)-pGBKT7 (NH3 terminus of α1C …); assay: as above
[14] = biological target: T4, NTA(2-100)pGBKT7 (NH3 terminus of the …); assay: as above
NTB(45-95)-pGBKT7 [15] = biological target: T5, NTB(45-95)-pGBKT7; assay: as above
NTB(Δ45-55)-pGBKT7 [16] = biological target: T6, NTB(Δ45-55)-pGBKT7; assay: as above
[17] = biological target: T7, Gβ1 fused to the GAL4 activation domain (Gβ1 in pGADT7) (UniProt P62871 1-340); assay: yeast two-hybrid
T7 construct: Yeast two-hybrid fusion; GAL4 domain placed first by the vector's design; also called Gβ1 (pGADT7); Gβ1/pGADT7
T7 sequence (P62871 whole entry, the tested form may be a part): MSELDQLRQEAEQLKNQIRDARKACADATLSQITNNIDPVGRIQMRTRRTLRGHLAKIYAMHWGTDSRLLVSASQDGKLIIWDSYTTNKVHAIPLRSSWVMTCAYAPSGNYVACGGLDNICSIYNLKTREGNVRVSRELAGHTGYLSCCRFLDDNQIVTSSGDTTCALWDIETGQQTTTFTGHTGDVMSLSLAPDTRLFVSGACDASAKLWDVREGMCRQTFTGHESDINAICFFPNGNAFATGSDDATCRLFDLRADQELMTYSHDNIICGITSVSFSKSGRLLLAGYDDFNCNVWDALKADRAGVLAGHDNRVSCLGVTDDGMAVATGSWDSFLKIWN

I-IIB-YFP [18] = biological target: T8, I-IIB-YFP (human, UniProt Q00975 357-482); assay: FRET two-hybrid in HEK293 cells
T8 construct: range 357-482; also called I-IIB in FRET; not shown: EYFP fused C-terminal to the test molecule

[19] = biological target: B12; assay: yeast two-hybrid control against lamin C, % of colonies surviving on high stringency plates, mean ± SEM
I-IIB-YFP [20] = biological target: T8, I-IIB-YFP; assay: FRET two-hybrid in HEK293 cells (three-cube FRET and YFP photobleaching)
[21] = biological target: T3, NTC(1-153)-pGBKT7 (NH3 terminus of α1C …); assay: yeast two-hybrid
[22] = biological target: T7, Gβ1 fused to the GAL4 activation domain …; assay: yeast two-hybrid, Gβ1 in pGADT7 against I-IIB in pGBKT7
[23] = biological target: T7, Gβ1 fused to the GAL4 activation domain …; assay: yeast two-hybrid, background control

B1: pGADT7 (empty vector; the isolated GAL4 activating domain itself) (other, UniProt P04386 768-881, looked up)
chain: ANFNQSGNIADSSLSFTFTNSSNGPNLITTQTNSQALSQPIASSNVHDNFMNNEITASKIDDGNNSKPLSPGWTDQTAYNAFGITTGMFNTTTMDDVYNYLFDDEDTPPNPKKE
notes: also called empty pGADT7
With B1 the “High Stringency (%)” value [1] was 0%, the “High Stringency (%)” value [2] was 0.1% and the “High Stringency (%)” value [3] was 0.34%. The “High Stringency (%)” value (NTB(1-55)-pGBKT7 [4]) was 3.84%, the “High Stringency (%)” value [5] was 1% and the “High Stringency (%)” value [6] was 0%. For the same binder, the “High Stringency (%)” value (NTB(45-95)-pGBKT7 [7]) was 0%, the “High Stringency (%)” value (NTB(Δ45-55)-pGBKT7 [8]) was 0.56% and the “Filter Lift Assay (%)” value [9] was 0%. The “Filter Lift Assay (%)” value [10] was 0%, the “Filter Lift Assay (%)” value [11] was 0.14% and the “Filter Lift Assay (%)” value (NTB(1-55)-pGBKT7 [12]) was 1.56%. For the same binder, the “Filter Lift Assay (%)” value [13] was 0%, the “Filter Lift Assay (%)” value [14] was 0.82% and the “Filter Lift Assay (%)” value (NTB(45-95)-pGBKT7 [15]) was 0%. The “Filter Lift Assay (%)” value (NTB(Δ45-55)-pGBKT7 [16]) was 2.5%.

B2: binds [17].

B3: NTB (56-95)-CFP (other)
chain: MALYNPIPVKQNCFTVNRSLFVFSEDNVVRKYAKRITEWP-{ECFP}
modifications: also: ECFP fused C-terminally, linker not given here
notes: not shown: ECFP fused C-terminal to the test molecule
B3: binds (I-IIB-YFP [18]).

B4: I-IIB(398-435)-pGADT7 (other, human, UniProt Q00975 398-435, looked up, not shown: large carriers)
chain: VMLAEEDRNAEEKSPLDVLKRAATKKSRNDLIHAEEGE
notes: range 398-435; Yeast two-hybrid fusion; GAL4 domain placed first by the vector's design
B4 was tested, and the “High Stringency (%)” value [19] was 0.04%.

B5: NTB-CFP (other)
chain: MVRFGDELGGRYGGPGGGERARGGGAGGAGGPGPGGLQPGQRVLYKQSIAQRARTMALYNPIPVKQNCFTVNRSLFVFSEDNVVRKYAKRITEWP
notes: also called NTB-CFP peptide; NTB (1-95) in FRET; not shown: ECFP fused C-terminal to the test molecule
B5: binds (I-IIB-YFP [20]).

B6: binds [17].

B7: I-IIB(436-482)-pGADT7 (other, human, UniProt Q00975 436-482, looked up, not shown: large carriers)
chain: DRFADLCAVGSPFARASLKSGKTESSSYFRRKEKMFRFFIRRMVKAQ
notes: range 436-482; Yeast two-hybrid fusion; GAL4 domain placed first by the vector's design
B7 was tested, and the “High Stringency (%)” value [19] was 0%.

B8: NTB (1-44)-CFP (other)
chain: MVRFGDELGGRYGGPGGGERARGGGAGGAGGPGPGGLQPGQRVL-{ECFP}
modifications: also: ECFP fused C-terminally, linker not given here
notes: as for B3
B8: no binding (I-IIB-YFP [18]).

B9: I-IIB(357-397)-pGADT7 (other, human, UniProt Q00975 357-397, looked up, not shown: large carriers)
chain: GEFAKERERVENRRAFLKLRRQQQIERELNGYLEWIFKAEE
notes: range 357-397; Yeast two-hybrid fusion; GAL4 domain placed first by the vector's design; Equating this segment with the 'N-terminal third' of the text is an inference; also called N-terminal third of the I-IIB loop; NH3-terminal third of the I-IIB loop
For B9, the “High Stringency (%)” value [19] was 0%.

B10: I-IIB(357-482)-pGADT7 (I-II loop of α1B fused to the GAL4 activation domain) (other, human, UniProt Q00975 357-482, looked up, not shown: large carriers)
chain: GEFAKERERVENRRAFLKLRRQQQIERELNGYLEWIFKAEEVMLAEEDRNAEEKSPLDVLKRAATKKSRNDLIHAEEGEDRFADLCAVGSPFARASLKSGKTESSSYFRRKEKMFRFFIRRMVKAQ
notes: range 357-482; Yeast two-hybrid fusion; GAL4 domain placed first by the vector's design; also called I-IIB (pGADT7)
In the case of B10, the binding result [21] is reported as “no binding” and the “High Stringency (%)” value [19] is reported as 0.74%.

B11: I-IIB(357-482)-pGBKT7 (I-II loop of α1B fused to the GAL4 binding domain) (other, UniProt P04386 1-147, looked up)
chain: MKLLSSIEQACDICRLKKLKCSKEKPKCAKCLKNNWECRYSPKTKRSPLTRAHLTEVESRLERLEQLFLLIFPREDLDMILKMDSLQDIKALLTGLFVQDNVNKDAVTDRLASVETDMPLTLRQHRISATSSSEESSNKGQRQLTVSGEFAKERERVENRRAFLKLRRQQQIERELNGYLEWIFKAEEVMLAEEDRNAEEKSPLDVLKRAATKKSRNDLIHAEEGEDRFADLCAVGSPFARASLKSGKTESSSYFRRKEKMFRFFIRRMVKAQ
notes: Yeast two-hybrid fusion; GAL4 domain placed first by the vector's design; also called I-IIB (pGBKT7)
B11: binds [22].

B12: no binding [23].
